The text below walks through data of US20160272683A1 (Novo Nordisk, published 2016).

Numbered stars: 1 amine (or outer) side, 2 acyl side, 3 side chain; on linkers, the order of the positions; unused ones are H or OH. * marks the point of attachment. C20 diacid = O=C(O)CCCCCCCCCCCCCCCCCCC(=O)*; C18 diacid = O=C(O)CCCCCCCCCCCCCCCCC(=O)*; γGlu = O=C(O)[C@H](CCC(=O)[*:2])N[*:1]

Sequences and labels used below:
B1: [N-terminal(C18 diacid-gGlu), des1, 6T, 9V, 30S, 31G]mimylin (peptide)
peptide: {C18 diacid-γGlu}-ASELTTAVLGRLSAELHELATLPRTETGSGSP-NH2
SMILES: CC(C)C[C@H](NC(=O)[C@H](CCC(=O)O)NC(=O)[C@H](Cc1c[nH]cn1)NC(=O)[C@H](CC(C)C)NC(=O)[C@H](CCC(=O)O)NC(=O)[C@H](C)NC(=O)[C@H](CO)NC(=O)[C@H](CC(C)C)NC(=O)[C@H](CCCNC(=N)N)NC(=O)CNC(=O)[C@H](CC(C)C)NC(=O)[C@@H](NC(=O)[C@H](C)NC(=O)[C@@H](NC(=O)[C@@H](NC(=O)[C@H](CC(C)C)NC(=O)[C@H](CCC(=O)O)NC(=O)[C@H](CO)NC(=O)[C@H](C)NC(=O)CC[C@H](NC(=O)CCCCCCCCCCCCCCCCC(=O)O)C(=O)O)[C@@H](C)O)[C@@H](C)O)C(C)C)C(=O)N[C@@H](C)C(=O)N[C@H](C(=O)N[C@@H](CC(C)C)C(=O)N1CCC[C@H]1C(=O)N[C@@H](CCCNC(=N)N)C(=O)N[C@H](C(=O)N[C@@H](CCC(=O)O)C(=O)N[C@H](C(=O)NCC(=O)N[C@@H](CO)C(=O)NCC(=O)N[C@@H](CO)C(=O)N1CCC[C@H]1C(N)=O)[C@@H](C)O)[C@@H](C)O)[C@@H](C)O
B2: [N-terminal(C20 diacid-gGlu), des1, 12H, 25H, 30S, 31G]mimylin (peptide)
peptide: {C20 diacid-γGlu}-ASELSTAALGHLSAELHELATLPHTETGSGSP-NH2
SMILES: CC(C)C[C@H](NC(=O)[C@H](C)NC(=O)[C@H](C)NC(=O)[C@@H](NC(=O)[C@H](CO)NC(=O)[C@H](CC(C)C)NC(=O)[C@H](CCC(=O)O)NC(=O)[C@H](CO)NC(=O)[C@H](C)NC(=O)CC[C@H](NC(=O)CCCCCCCCCCCCCCCCCCC(=O)O)C(=O)O)[C@@H](C)O)C(=O)NCC(=O)N[C@@H](Cc1c[nH]cn1)C(=O)N[C@@H](CC(C)C)C(=O)N[C@@H](CO)C(=O)N[C@@H](C)C(=O)N[C@@H](CCC(=O)O)C(=O)N[C@@H](CC(C)C)C(=O)N[C@@H](Cc1c[nH]cn1)C(=O)N[C@@H](CCC(=O)O)C(=O)N[C@@H](CC(C)C)C(=O)N[C@@H](C)C(=O)N[C@H](C(=O)N[C@@H](CC(C)C)C(=O)N1CCC[C@H]1C(=O)N[C@@H](Cc1c[nH]cn1)C(=O)N[C@H](C(=O)N[C@@H](CCC(=O)O)C(=O)N[C@H](C(=O)NCC(=O)N[C@@H](CO)C(=O)NCC(=O)N[C@@H](CO)C(=O)N1CCC[C@H]1C(N)=O)[C@@H](C)O)[C@@H](C)O)[C@@H](C)O
B3: [N-terminal(C20 diacid-gGlu), -1E, 1A, 23Y, 30S, 31G]mimylin (peptide)
peptide: {C20 diacid-γGlu}-EAASELSTAALGRLSAELHELATYPRTETGSGSP-NH2
SMILES: CC(C)C[C@H](NC(=O)[C@H](C)NC(=O)[C@H](C)NC(=O)[C@@H](NC(=O)[C@H](CO)NC(=O)[C@H](CC(C)C)NC(=O)[C@H](CCC(=O)O)NC(=O)[C@H](CO)NC(=O)[C@H](C)NC(=O)[C@H](C)NC(=O)[C@H](CCC(=O)O)NC(=O)CC[C@H](NC(=O)CCCCCCCCCCCCCCCCCCC(=O)O)C(=O)O)[C@@H](C)O)C(=O)NCC(=O)N[C@@H](CCCNC(=N)N)C(=O)N[C@@H](CC(C)C)C(=O)N[C@@H](CO)C(=O)N[C@@H](C)C(=O)N[C@@H](CCC(=O)O)C(=O)N[C@@H](CC(C)C)C(=O)N[C@@H](Cc1c[nH]cn1)C(=O)N[C@@H](CCC(=O)O)C(=O)N[C@@H](CC(C)C)C(=O)N[C@@H](C)C(=O)N[C@H](C(=O)N[C@@H](Cc1ccc(O)cc1)C(=O)N1CCC[C@H]1C(=O)N[C@@H](CCCNC(=N)N)C(=O)N[C@H](C(=O)N[C@@H](CCC(=O)O)C(=O)N[C@H](C(=O)NCC(=O)N[C@@H](CO)C(=O)NCC(=O)N[C@@H](CO)C(=O)N1CCC[C@H]1C(N)=O)[C@@H](C)O)[C@@H](C)O)[C@@H](C)O
B4: [N-terminal(C20 diacid-gGlu), des1, 23Y, 30S, 31G, 34G, C-terminal(-)]mimylin (peptide)
peptide: {C20 diacid-γGlu}-ASELSTAALGRLSAELHELATYPRTETGSGSPG-OH
SMILES: CC(C)C[C@H](NC(=O)[C@H](C)NC(=O)[C@H](C)NC(=O)[C@@H](NC(=O)[C@H](CO)NC(=O)[C@H](CC(C)C)NC(=O)[C@H](CCC(=O)O)NC(=O)[C@H](CO)NC(=O)[C@H](C)NC(=O)CC[C@H](NC(=O)CCCCCCCCCCCCCCCCCCC(=O)O)C(=O)O)[C@@H](C)O)C(=O)NCC(=O)N[C@@H](CCCNC(=N)N)C(=O)N[C@@H](CC(C)C)C(=O)N[C@@H](CO)C(=O)N[C@@H](C)C(=O)N[C@@H](CCC(=O)O)C(=O)N[C@@H](CC(C)C)C(=O)N[C@@H](Cc1c[nH]cn1)C(=O)N[C@@H](CCC(=O)O)C(=O)N[C@@H](CC(C)C)C(=O)N[C@@H](C)C(=O)N[C@H](C(=O)N[C@@H](Cc1ccc(O)cc1)C(=O)N1CCC[C@H]1C(=O)N[C@@H](CCCNC(=N)N)C(=O)N[C@H](C(=O)N[C@@H](CCC(=O)O)C(=O)N[C@H](C(=O)NCC(=O)N[C@@H](CO)C(=O)NCC(=O)N[C@@H](CO)C(=O)N1CCC[C@H]1C(=O)NCC(=O)O)[C@@H](C)O)[C@@H](C)O)[C@@H](C)O
B5: [N-terminal(C20 diacid-gGlu), des1, 23Y, 30S, 31G, 34K, C-terminal(-)]mimylin (peptide)
peptide: {C20 diacid-γGlu}-ASELSTAALGRLSAELHELATYPRTETGSGSPK-OH
SMILES: CC(C)C[C@H](NC(=O)[C@H](C)NC(=O)[C@H](C)NC(=O)[C@@H](NC(=O)[C@H](CO)NC(=O)[C@H](CC(C)C)NC(=O)[C@H](CCC(=O)O)NC(=O)[C@H](CO)NC(=O)[C@H](C)NC(=O)CC[C@H](NC(=O)CCCCCCCCCCCCCCCCCCC(=O)O)C(=O)O)[C@@H](C)O)C(=O)NCC(=O)N[C@@H](CCCNC(=N)N)C(=O)N[C@@H](CC(C)C)C(=O)N[C@@H](CO)C(=O)N[C@@H](C)C(=O)N[C@@H](CCC(=O)O)C(=O)N[C@@H](CC(C)C)C(=O)N[C@@H](Cc1c[nH]cn1)C(=O)N[C@@H](CCC(=O)O)C(=O)N[C@@H](CC(C)C)C(=O)N[C@@H](C)C(=O)N[C@H](C(=O)N[C@@H](Cc1ccc(O)cc1)C(=O)N1CCC[C@H]1C(=O)N[C@@H](CCCNC(=N)N)C(=O)N[C@H](C(=O)N[C@@H](CCC(=O)O)C(=O)N[C@H](C(=O)NCC(=O)N[C@@H](CO)C(=O)NCC(=O)N[C@@H](CO)C(=O)N1CCC[C@H]1C(=O)N[C@@H](CCCCN)C(=O)O)[C@@H](C)O)[C@@H](C)O)[C@@H](C)O
B6: [N-terminal(C20 diacid-gGlu), des1, 21S, 23Y, 30S, 31G]mimylin (peptide)
peptide: {C20 diacid-γGlu}-ASELSTAALGRLSAELHELSTYPRTETGSGSP-NH2
SMILES: CC(C)C[C@H](NC(=O)[C@H](C)NC(=O)[C@H](C)NC(=O)[C@@H](NC(=O)[C@H](CO)NC(=O)[C@H](CC(C)C)NC(=O)[C@H](CCC(=O)O)NC(=O)[C@H](CO)NC(=O)[C@H](C)NC(=O)CC[C@H](NC(=O)CCCCCCCCCCCCCCCCCCC(=O)O)C(=O)O)[C@@H](C)O)C(=O)NCC(=O)N[C@@H](CCCNC(=N)N)C(=O)N[C@@H](CC(C)C)C(=O)N[C@@H](CO)C(=O)N[C@@H](C)C(=O)N[C@@H](CCC(=O)O)C(=O)N[C@@H](CC(C)C)C(=O)N[C@@H](Cc1c[nH]cn1)C(=O)N[C@@H](CCC(=O)O)C(=O)N[C@@H](CC(C)C)C(=O)N[C@@H](CO)C(=O)N[C@H](C(=O)N[C@@H](Cc1ccc(O)cc1)C(=O)N1CCC[C@H]1C(=O)N[C@@H](CCCNC(=N)N)C(=O)N[C@H](C(=O)N[C@@H](CCC(=O)O)C(=O)N[C@H](C(=O)NCC(=O)N[C@@H](CO)C(=O)NCC(=O)N[C@@H](CO)C(=O)N1CCC[C@H]1C(N)=O)[C@@H](C)O)[C@@H](C)O)[C@@H](C)O

The first assay deals with T1, human amylin 3(a) receptor (human calcitonin receptor co-expressed with RAMP-3) on BHK570/CRE-luc cells (human, UniProt P30988 25-474; O60896 24-148).
T1 sequence (looked up) 1: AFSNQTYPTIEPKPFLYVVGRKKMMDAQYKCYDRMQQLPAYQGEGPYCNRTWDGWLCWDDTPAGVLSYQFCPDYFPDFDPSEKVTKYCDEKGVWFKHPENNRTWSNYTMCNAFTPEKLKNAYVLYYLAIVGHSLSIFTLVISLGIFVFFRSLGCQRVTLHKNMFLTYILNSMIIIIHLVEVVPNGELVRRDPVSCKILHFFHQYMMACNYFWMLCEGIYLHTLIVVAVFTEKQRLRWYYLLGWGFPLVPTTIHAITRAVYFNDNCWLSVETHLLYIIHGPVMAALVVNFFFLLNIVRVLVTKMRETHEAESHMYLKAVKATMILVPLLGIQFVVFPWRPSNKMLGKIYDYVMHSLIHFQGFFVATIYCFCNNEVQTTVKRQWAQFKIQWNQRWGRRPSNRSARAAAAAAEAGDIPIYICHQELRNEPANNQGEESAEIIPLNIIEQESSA
T1 sequence (looked up) 2: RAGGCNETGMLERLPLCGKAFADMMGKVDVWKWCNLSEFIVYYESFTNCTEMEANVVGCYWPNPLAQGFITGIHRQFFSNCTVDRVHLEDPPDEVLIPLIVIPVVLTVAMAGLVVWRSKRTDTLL
Briefly: cell-based or functional assay.
Regarding B1, the “hAmylin-R funct. EC50 (pM), tested with HSA” value (from here on “hAmylin-R funct. EC50 (pM)”) came out at 19 pM.
The same measure, in the same setting: the same measure for B2: 440 pM; for B3: 181 pM.
Same read-out and setting: with B4 the figure was 210 pM.
As for B5, the “hAmylin-R funct. EC50 (pM)” value is 209 pM.
On the same count and under the same terms, with B6 the figure was 58 pM; with {C18 diacid-γGlu}-ASEVSTAVLGRLSAELHELATLPRTETGSGSP-NH2 [[N-terminal(C18 diacid-gGlu), des1, 5V, 9V, 30S, 31G]mimylin], 356 pM.
For the molecule {C20 diacid-γGlu}-ASELSTAALGRLSAELHELATYPRTETGSGSY-OH [[N-terminal(C20 diacid-gGlu), des1, 23Y, 30S, 31G, 33Y, C-terminal(-)]mimylin], the “hAmylin-R funct. EC50 (pM)” value stood at 976 pM.

For the next assay, the target named is T2, human calcitonin receptor on BHK570/CRE-luc cells (human, UniProt P30988 25-474).
T2 sequence (looked up): T1 sequence (looked up) 1
Briefly: cell-based or functional assay.
B1: the “hCTR funct. EC50 (pM), tested with HSA” value was 9 pM.
The same measure, in the same setting: the same measure for B2: 123 pM; for B3: 113 pM; for B4: 50 pM.
Still for that read-out and setting: the same measure for B5: 53 pM; for B6: 30 pM.
Regarding {C18 diacid-γGlu}-ASEVSTAVLGRLSAELHELATLPRTETGSGSP-NH2 [[N-terminal(C18 diacid-gGlu), des1, 5V, 9V, 30S, 31G]mimylin], the “hCTR funct. EC50 (pM), tested with HSA” value is 87 pM.
Same read-out and setting: with {C20 diacid-γGlu}-ASELSTAALGRLSAELHELATYPRTETGSGSY-OH [[N-terminal(C20 diacid-gGlu), des1, 23Y, 30S, 31G, 33Y, C-terminal(-)]mimylin] the figure was 418 pM.
